Publication PMC8442874

Target: Soc-SpyCatcher fusion protein (displayed on T4 phage: T4-SpyCatcher phage) (bacteriophage T4)
Experiment: co-sedimentation

## SUMO-RBD-SpyTag fusion protein, refolded (from UniProt P0DTC2 319-545) (domain or fragment)
  copies per capsid (rRBD molecules per capsid): 300
